Data reported in patent publication US7354722 (SIGNAL PHARMACEUTICALS, dated 2008).
Values belong to the binder of their own block, whether it stands above or below them.

Target: T1, Xenopus Smurf1 (Xenopus, UniProt Q9PUN2 1-731)
T1 construct: Used as a yeast two-hybrid fusion and as in vitro translated 35S-Met-labelled protein; also called Xsmurf; 35S-labelled Smurf1
Experiment: in vitro co-immunoprecipitation: 35S-Smurf1 on FLAG-Smad bound to anti-FLAG beads
Description: (A) Smurf1 interacts with Smad1. Yeast two-hybrid assays were done on yeast co-transformed with combinations of Xenopus Smurf1 (Xsmurf) together with Smad1, Smad2, lamin or vector alone. […] Co-immunoprecipitation on in vitro translated proteins was done by incubating 35S-labelled Smurf1 together with in vitro translated, 35S-Met trace-labelled Flag-tagged Smad1 (35S-F/Smad1), Smad2 (35S-F/Smad2) or Smad4 (35S-F/Smad4) immobilized on anti-Flag affinity gel matrices. After washing, bound proteins were eluted and analyzed by SDS-PAGE (right panel).

T1 sequence (Q9PUN2 whole entry, the tested form may be a part): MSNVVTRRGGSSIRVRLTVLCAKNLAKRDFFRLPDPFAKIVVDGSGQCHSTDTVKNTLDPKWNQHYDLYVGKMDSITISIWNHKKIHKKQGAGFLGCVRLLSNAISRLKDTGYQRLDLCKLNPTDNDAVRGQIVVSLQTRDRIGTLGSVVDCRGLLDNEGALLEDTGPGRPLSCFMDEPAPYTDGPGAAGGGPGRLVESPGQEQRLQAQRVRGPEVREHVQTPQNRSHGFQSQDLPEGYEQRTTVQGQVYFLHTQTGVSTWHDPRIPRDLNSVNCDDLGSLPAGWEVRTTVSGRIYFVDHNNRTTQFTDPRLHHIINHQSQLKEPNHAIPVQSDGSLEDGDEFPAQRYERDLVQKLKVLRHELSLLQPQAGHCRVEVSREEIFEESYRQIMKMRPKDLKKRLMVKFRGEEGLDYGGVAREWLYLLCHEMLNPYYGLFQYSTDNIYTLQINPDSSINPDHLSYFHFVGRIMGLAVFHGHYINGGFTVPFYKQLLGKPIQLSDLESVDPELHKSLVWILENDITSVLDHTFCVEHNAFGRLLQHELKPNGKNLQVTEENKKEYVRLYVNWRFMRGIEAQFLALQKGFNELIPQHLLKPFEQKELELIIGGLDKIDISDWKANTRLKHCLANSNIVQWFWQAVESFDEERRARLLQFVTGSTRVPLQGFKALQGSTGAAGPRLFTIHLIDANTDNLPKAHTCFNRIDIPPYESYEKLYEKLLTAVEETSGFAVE

binding result: no binding
B1: human Smad2, FLAG-tagged at the C-terminus, in vitro translated (other, UniProt Q15796 1-467, looked up)
chain: MSSILPFTPPVVKRLLGWKKSAGGSGGAGGGEQNGQEEKWCEKAVKSLVKKLKKTGRLDELEKAITTQNCNTKCVTIPSTCSEIWGLSTPNTIDQWDTTGLYSFSEQTRSLDGRLQVSHRKGLPHVIYCRLWRWPDLHSHHELKAIENCEYAFNLKKDEVCVNPYHYQRVETPVLPPVLVPRHTEILTELPPLDDYTHSIPENTNFPAGIEPQSNYIPETPPPGYISEDGETSDQQLNQSMDTGSPAELSPTTLSPVNHSLDLQPVTYSEPAFWCSIAYYELNQRVGETFHASQPSLTVDGFTDPSNSERFCLGLLSNVNRNATVEMTRRHIGRGVRLYYIGGEVFAECLSDSAIFVQSPNCNQRYGWHPATVCKIPPGCNLKIFNNQEFAALLAQSVNQGFEAVYQLTRMCTIRMSFVKGWGAEYRRQTVTSTPCWIELHLNGPLQWLDKVLTQMGSPSVRCSSMS
notes: also called 35S-F/Smad2; not shown: C-terminal FLAG tag

binding result: no binding
B2: mouse Smad4, FLAG-tagged at the C-terminus, in vitro translated (other, UniProt P97471 1-551, looked up)
chain: MDNMSITNTPTSNDACLSIVHSLMCHRQGGESETFAKRAIESLVKKLKEKKDELDSLITAITTNGAHPSKCVTIQRTLDGRLQVAGRKGFPHVIYARLWRWPDLHKNELKHVKYCQYAFDLKCDSVCVNPYHYERVVSPGIDLSGLTLQSNAPSMLVKDEYVHDFEGQPSLPTEGHSIQTIQHPPSNRASTETYSAPALLAPAESNATSTTNFPNIPVASTSQPASILAGSHSEGLLQIASGPQPGQQQNGFTAQPATYHHNSTTTWTGSRTAPYTPNLPHHQNGHLQHHPPMPPHPGHYWPVHNELAFQPPISNHPAPEYWCSIAYFEMDVQVGETFKVPSSCPVVTVDGYVDPSGGDRFCLGQLSNVHRTEAIERARLHIGKGVQLECKGEGDVWVRCLSDHAVFVQSYYLDREAGRAPGDAVHKIYPSAYIKVFDLRQCHRQMQQQAATAQAAAAAQAAAVAGNIPGPGSVGGIAPAISLSAAAGIGVDDLRRLCILRMSFVKGWGPDYPRQSIKETPCWIEIHLHRALQLLDEVLHTMPIADPQPLD
notes: also called 35S-F/Smad4; not shown: C-terminal FLAG tag
